From the supplement of paper PMC10567573

B1: PHTF1 (parent)
chain: SRHLNSQVKKTTTRWCHIVRDSDS

Variants of: B1
Assay: protein stability index of a GFP-peptide fusion (GPS, HEK-293T) (PSI 1-6); higher = more stable
Settings: c terminus: a fixed tail appended
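Note: lentivirally expressed fusions sorted by FACS into six bins by GFP to DsRed ratio, PSI derived from sequencing read proportions per bin multiplied by bin number.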

Q: With SRHLNSQVKKTTTRWSHIVRDSDS as the variant, how does the protein stability index read?
A: The protein stability index was 2.14.

Q: Which protein stability index does the source give for SRHLNSQVKKTTTRWWHIVRDSDS here?
A: The protein stability index was 2.27.

Q: For SRHLNSQVKKTTTRWGHIVRDSDS, which protein stability index is on record?
A: The protein stability index was 3.53.

Q: With SRHLNSQVKKTTTRWAHIVRDSDS as the variant, how does the protein stability index read?
A: Its protein stability index is 1.3.

Q: Which protein stability index does the source give for SRHLNSQVKKTTTRWHHIVRDSDS here?
A: The protein stability index was 3.28.

Q: With SRHLNSQVKKTTTRWQHIVRDSDS as the variant, how does the protein stability index read?
A: The protein stability index was 2.3.

Q: With SRHLNSQVKKTTTRWKHIVRDSDS as the variant, how does the protein stability index read?
A: The protein stability index was 2.99.

Q: Which protein stability index does the source give for SRHLNSQVKKTTTRWYHIVRDSDS here?
A: Its protein stability index is 2.56.

Q: Which protein stability index does the source give for SRHLNSQVKKRTTRWCHIVRDSDS here?
A: Its protein stability index is 2.12.

Q: For SRHLNSQVKKLTTRWCHIVRDSDS, which protein stability index is on record?
A: Its protein stability index is 1.58.

Q: Which protein stability index does the source give for SRHLNSQVKKMTTRWCHIVRDSDS here?
A: The protein stability index was 2.39.

Q: With SRHLNSQVKKCTTRWCHIVRDSDS as the variant, how does the protein stability index read?
A: The protein stability index was 3.08.

Q: For SRHLNSQVKKHTTRWCHIVRDSDS, which protein stability index is on record?
A: The protein stability index was 2.95.

Q: For SRHLNSQVKKETTRWCHIVRDSDS, which protein stability index is on record?
A: Its protein stability index is 2.11.

Q: With SRHLNSQVKKTTTRWCHRVRDSDS as the variant, how does the protein stability index read?
A: Its protein stability index is 3.06.

Q: With SRHLNSQVKKTTTRWCHGVRDSDS as the variant, how does the protein stability index read?
A: Its protein stability index is 3.15.

Q: With SRHLNSQVKKTTTRWCHTVRDSDS as the variant, how does the protein stability index read?
A: The protein stability index was 2.17.

Q: For SRHLNSQVKKTTTRWCHSVRDSDS, which protein stability index is on record?
A: Its protein stability index is 3.95.

Q: Which protein stability index does the source give for SRHLNSQVKKTTTRWCHYVRDSDS here?
A: Its protein stability index is 1.74.

Q: For SRHLNSQVKKTTTRWCHMVRDSDS, which protein stability index is on record?
A: The protein stability index was 2.34.

Q: With SRHLNSQVKKTTTRWCHDVRDSDS as the variant, how does the protein stability index read?
A: Its protein stability index is 3.92.

Q: With SRHLNSQVKKTTTRWCHNVRDSDS as the variant, how does the protein stability index read?
A: The protein stability index was 3.3.

Q: Which protein stability index does the source give for SRHLNSQVKKTTTRWCHKVRDSDS here?
A: Its protein stability index is 2.77.

Q: With SRHLNSQVKKTTTRWCHEVRDSDS as the variant, how does the protein stability index read?
A: Its protein stability index is 3.1.

Q: Which protein stability index does the source give for SRHLNSQVKKTTTRWCHAVRDSDS here?
A: Its protein stability index is 2.43.

Q: For SRHLNSQVKKTTTRWCHHVRDSDS, which protein stability index is on record?
A: The protein stability index was 2.52.

Q: For SRHLNSQVGKTTTRWCHIVRDSDS, which protein stability index is on record?
A: The protein stability index was 2.55.

Q: For SRHLNSQVTKTTTRWCHIVRDSDS, which protein stability index is on record?
A: The protein stability index was 1.83.

Q: With SRHLNSQVMKTTTRWCHIVRDSDS as the variant, how does the protein stability index read?
A: Its protein stability index is 2.37.

Q: With SRHLNSQVNKTTTRWCHIVRDSDS as the variant, how does the protein stability index read?
A: Its protein stability index is 2.35.

Q: Which protein stability index does the source give for SRHLNSQVFKTTTRWCHIVRDSDS here?
A: The protein stability index was 1.83.

Q: For SRHLNSQVKKTTDRWCHIVRDSDS, which protein stability index is on record?
A: Its protein stability index is 2.76.

Q: For SRHLNSQVKKTTSRWCHIVRDSDS, which protein stability index is on record?
A: The protein stability index was 2.05.

Q: Which protein stability index does the source give for SRHLNSQVKKTTERWCHIVRDSDS here?
A: The protein stability index was 2.94.

Q: Which protein stability index does the source give for SRHLNSQVKKTTRRWCHIVRDSDS here?
A: Its protein stability index is 2.14.

Q: Which protein stability index does the source give for SRHLNSQVKKTTGRWCHIVRDSDS here?
A: Its protein stability index is 2.75.

Q: For SRHLNSQVKKTTWRWCHIVRDSDS, which protein stability index is on record?
A: The protein stability index was 1.82.

Q: For SRHLNSQVKKTTTNWCHIVRDSDS, which protein stability index is on record?
A: The protein stability index was 2.94.

Q: With SRHLNSQVKKTTTQWCHIVRDSDS as the variant, how does the protein stability index read?
A: Its protein stability index is 2.67.

Q: Which protein stability index does the source give for SRHLNSQVKKTTTVWCHIVRDSDS here?
A: Its protein stability index is 3.08.

Q: With SRHLNSQVKKTTTLWCHIVRDSDS as the variant, how does the protein stability index read?
A: The protein stability index was 2.14.

Q: For SRHLNSQVKKTTTHWCHIVRDSDS, which protein stability index is on record?
A: Its protein stability index is 2.17.

Q: With SRHLNSQVKKTTTSWCHIVRDSDS as the variant, how does the protein stability index read?
A: The protein stability index was 1.91.

Q: Which protein stability index does the source give for SRHLNSQVKKTTTTWCHIVRDSDS here?
A: Its protein stability index is 1.71.

Q: With SRHLNSQVKKTTTCWCHIVRDSDS as the variant, how does the protein stability index read?
A: The protein stability index was 1.87.

Q: For SRHLNSQVKKTTTFWCHIVRDSDS, which protein stability index is on record?
A: The protein stability index was 2.04.

Q: For SRHLNSQVKKTTTRWCHIVRYSDS, which protein stability index is on record?
A: Its protein stability index is 1.69.

Q: With SRHLNSQVKKTTTRWCHIVRPSDS as the variant, how does the protein stability index read?
A: The protein stability index was 2.57.

Q: With SRHLNSQVKKTTTRWCHIVRKSDS as the variant, how does the protein stability index read?
A: Its protein stability index is 2.39.

Q: Which protein stability index does the source give for SRHLNSQVKKTTTRWCHIVRTSDS here?
A: The protein stability index was 2.79.

Q: With SRHLNSQVKKTTTRWCHIVRASDS as the variant, how does the protein stability index read?
A: Its protein stability index is 2.5.

Q: With SRHLNSQVKKTTTRICHIVRDSDS as the variant, how does the protein stability index read?
A: Its protein stability index is 3.36.

Q: With SRHLNSQVKKTTTRKCHIVRDSDS as the variant, how does the protein stability index read?
A: The protein stability index was 3.78.

Q: For SRHLNSQVKKTTTRRCHIVRDSDS, which protein stability index is on record?
A: Its protein stability index is 3.94.

Q: Which protein stability index does the source give for SRHLNSQVKKTTTRTCHIVRDSDS here?
A: The protein stability index was 3.87.

Q: With SRHLNSQVKKTTTRECHIVRDSDS as the variant, how does the protein stability index read?
A: The protein stability index was 4.88.

Q: With SRHLNSQVKKTTTRYCHIVRDSDS as the variant, how does the protein stability index read?
A: Its protein stability index is 3.36.

Q: For SRHLNSQVKKTTTRVCHIVRDSDS, which protein stability index is on record?
A: Its protein stability index is 3.06.

Q: Which protein stability index does the source give for SRHLNSGVKKTTTRWCHIVRDSDS here?
A: The protein stability index was 1.89.

Q: For SRHLNSSVKKTTTRWCHIVRDSDS, which protein stability index is on record?
A: The protein stability index was 2.8.

Q: With SRHLNSFVKKTTTRWCHIVRDSDS as the variant, how does the protein stability index read?
A: Its protein stability index is 1.22.

Q: For SRHLNSNVKKTTTRWCHIVRDSDS, which protein stability index is on record?
A: The protein stability index was 1.78.

Q: For SRHLNSTVKKTTTRWCHIVRDSDS, which protein stability index is on record?
A: The protein stability index was 2.82.

Q: Which protein stability index does the source give for SRHLNSHVKKTTTRWCHIVRDSDS here?
A: The protein stability index was 3.08.

Q: For SIHLNSQVKKTTTRWCHIVRDSDS, which protein stability index is on record?
A: Its protein stability index is 2.2.

Q: For SQHLNSQVKKTTTRWCHIVRDSDS, which protein stability index is on record?
A: The protein stability index was 2.4.

Q: For SKHLNSQVKKTTTRWCHIVRDSDS, which protein stability index is on record?
A: The protein stability index was 2.53.

Q: With SYHLNSQVKKTTTRWCHIVRDSDS as the variant, how does the protein stability index read?
A: Its protein stability index is 2.

Q: For SGHLNSQVKKTTTRWCHIVRDSDS, which protein stability index is on record?
A: Its protein stability index is 1.69.

Q: For SWHLNSQVKKTTTRWCHIVRDSDS, which protein stability index is on record?
A: Its protein stability index is 2.08.

Q: With SHHLNSQVKKTTTRWCHIVRDSDS as the variant, how does the protein stability index read?
A: The protein stability index was 1.96.

Q: For SDHLNSQVKKTTTRWCHIVRDSDS, which protein stability index is on record?
A: The protein stability index was 2.3.

Q: With SPHLNSQVKKTTTRWCHIVRDSDS as the variant, how does the protein stability index read?
A: The protein stability index was 1.89.

Q: For SVHLNSQVKKTTTRWCHIVRDSDS, which protein stability index is on record?
A: The protein stability index was 1.87.

Q: With SRHLNSQVKKTTTRWCHIVGDSDS as the variant, how does the protein stability index read?
A: Its protein stability index is 1.76.

Q: With SRHLNSQVKKTTTRWCHIVQDSDS as the variant, how does the protein stability index read?
A: The protein stability index was 2.09.

Q: Which protein stability index does the source give for SRHLNSQVKKTTTRWCHIVEDSDS here?
A: The protein stability index was 2.75.

Q: Which protein stability index does the source give for SRHLNSQVKKTTTRWCHIVTDSDS here?
A: The protein stability index was 2.61.

Q: For SRHLNSQVKKTTTRWCHIVVDSDS, which protein stability index is on record?
A: The protein stability index was 3.11.

Q: With SRHLNSQVKKTTTRWCHIVADSDS as the variant, how does the protein stability index read?
A: The protein stability index was 2.31.

Q: Which protein stability index does the source give for SRGLNSQVKKTTTRWCHIVRDSDS here?
A: The protein stability index was 2.21.

Q: With SRMLNSQVKKTTTRWCHIVRDSDS as the variant, how does the protein stability index read?
A: The protein stability index was 2.15.

Q: For SRVLNSQVKKTTTRWCHIVRDSDS, which protein stability index is on record?
A: The protein stability index was 2.36.

Q: Which protein stability index does the source give for SRTLNSQVKKTTTRWCHIVRDSDS here?
A: The protein stability index was 2.23.

Q: Which protein stability index does the source give for SRQLNSQVKKTTTRWCHIVRDSDS here?
A: The protein stability index was 2.28.

Q: Which protein stability index does the source give for SRELNSQVKKTTTRWCHIVRDSDS here?
A: Its protein stability index is 2.52.

Q: For SRALNSQVKKTTTRWCHIVRDSDS, which protein stability index is on record?
A: The protein stability index was 2.23.

Q: With SRHLNSQVKKTTTRWCHIVRDSGS as the variant, how does the protein stability index read?
A: The protein stability index was 1.56.

Q: For SRHLNSQVKKTTTRWCHIVRDSVS, which protein stability index is on record?
A: The protein stability index was 1.62.

Q: With SRHLNSQVKKTTTRWCHIVRDSIS as the variant, how does the protein stability index read?
A: The protein stability index was 2.16.

Q: With SRHLNSQVKKTTTRWCHIVRDSES as the variant, how does the protein stability index read?
A: The protein stability index was 1.99.

Q: Which protein stability index does the source give for SRHLNSQVKKTTTRWCHIVRDSNS here?
A: Its protein stability index is 1.99.

Q: With SRHLNSQVKKTTTRWCHIVRDSYS as the variant, how does the protein stability index read?
A: Its protein stability index is 1.88.

Q: For SRHLNSQVKKTTTRWCHIVRDSLS, which protein stability index is on record?
A: The protein stability index was 1.75.
